Earlier results on one molecule are cited in patent publication US20160282364A1, “ASSAY FOR INSULIN-DEGRADING ENZYME (IDE) INHIBITORS” (PRESIDENT AND FELLOWS OF HARVARD COLLEGE, priority 2013, published 2016).

One may read the Km as the substrate concentration at which the rate is half of its maximum. What is called kcat is the number of substrate molecules converted per active site and unit of time at saturation.

The test system of this data set is IDE.

B1: insulin-like peptide 3 (protein, UniProt P51460 21-55; P51460 106-131, looked up)
Insulin-like 3 B chain: LGPAPTPEMREKLCGHHFVRALVRVCGGPRWSTEA
Insulin-like 3 A chain: AAATNPARYCCLSGCTQQDLLTLCPY
modifications: Insulin-like 3
notes: IDE substrate in vitro
Turning to B1, under “IDE substrate”, the Michaelis constant (Km) is 0.055 µM and the kcat is 0.0025 s⁻¹. The Degradation entry (degradation kinetics compared to insulin) was “Fast”.
